Target: ACE-2 receptor on the surface of Vero-E6 cells (African green monkey (endogenous in Vero-E6))
Test: flow cytometry on cells

Substance: commercially available recombinant RBD (from UniProt P0DTC2) (domain or fragment)
- percent of cells bound to RBD: 78%

Substance: recombinant SARS-CoV-2 RBD (Pro330-Ser530) expressed in Sf9 insect cells (from UniProt P0DTC2 330-530) (domain or fragment)
- percent of cells bound to RBD: 60%
